Measured values reported in US6875741 (Novo Nordisk, dated 2005).

Assays:
[1] = biological target: T1, soluble human insulin receptor-immunoglobulin heavy chain chimera (human, UniProt P06213 28-956, limits assumed); test: ratio of IC50 on rhIGF-1R (TR-FRET vs b-20E2) to IC50 on sIR-Fc (FP vs FITC-RP9)
T1 construct: extracellular domain; also called sIR-Fc; slR-Fc; not shown: immunoglobulin heavy chain constant domains

[2] = biological target: T2, soluble human insulin receptor-immunoglobulin heavy chain chimera (human, UniProt P06213 28-956); test: phage ELISA ratios compared
T2 construct: extracellular domain; Heterotetramer; also called IR; sIR-Fc; not shown: immunoglobulin heavy chain constant domains replacing the transmembrane and intr

[3] = biological target: T3, Soluble IGF-1R (R&D Systems, Cat. # 391-GR) (UniProt P08069 31-935, limits assumed); test: phage ELISA ratios compared
T3 construct: extracellular domain; bought; also called sIGF-1R

Binder | Binding Ratio IGF-1R/IR [1] | IR/IGF-1R ratio comparison [2] | IGF-1R/IR ratio comparison [3]
VMDARDDPFYHKLSELVT [RP16] | 0.15 |  | 
YSCGDGFYSLLSDLLGGQFRC [20E2B-4-H12-IGFR] |  | 0.1 | 12.8
IQQELTFYDLLHRLVRSELGS [20E2B-3-D2-IGFR] |  | 0.1 | 11.7
DRAFYNGLRDLVGAVYGAWD [R20α-4-20C11-IR] |  | 0.1 | 10.3
PVGVQGFYEGLSRLVLGRGGW [20E2B-4-F8-IGFR] |  | 0.1 | 9.7
RFSTDGFYQYLLALVGGGPVG [20E2B-1-A11-IGFR] |  | 0.1 | 9.7
NSRDGGFYLQLERLLGFPVTG [20E2B-3-D4-IGFR] |  | 0.1 | 9.6
PGTDLGFYQALRCVVIQGACD [20E2B-2-B2-IGFR] |  | 0.1 | 8.1
AQPCGGFYGLLEQLVGRSVCD [20E2B-4-F10-IGFR] |  | 0.1 | 7.8
QFYGCLLDLSLGVPSFGWRRRCITA [20C-3-A4-IGFR] |  | 0.1 | 7.6
ICTGQGFYQVLCGLLRGTSAR [20E2B-2-B3-IGFR] |  | 0.1 | 7.4
QGNVLDFYGWIGRLLAKQGSD [20E2B-3-D12-IGFR] |  | 0.1 | 7.3
VATSQGFYSGLSELLQGGGNV [20E2B-3-E12-IGFR] |  | 0.1 | 7.3
IWATGDFYRLLSQLVMGRVGT [20E2B-2-B8-IGFR] |  | 0.1 | 7.2
EGSGFYGYFFSLLGLQG [NNRPγ-4-A9-IR] |  | 0.1 | 7.1
RQGTGSFYLMLEQLLVGARGP [20E2B-4-G11-IGFR] |  | 0.1 | 7
DSVGDNFYQLLESLVGGHGVG [20E2B-3-D6-IGFR] |  | 0.1 | 6.9
LSSDGQFYRALNLLLQGSAGR [20E2B-2-B7-IGFR] |  | 0.1 | 6.7
ASSASGFYELLQRLAGLGLEV [20E2B-3-C4-IGFR] |  | 0.2 | 6.2
FFYRCLSRLLGGQLGSRLGLSCIGD [20C-3-E4-IGFR] |  | 0.2 | 6

Binder | Binding Ratio IGF-1R/IR [1] | IR/IGF-1R ratio comparison [2] | IGF-1R/IR ratio comparison [3]
PAGPCGFYCGLGLLLHGDQSP [20E2B-4-H8-IGFR] |  | 0.2 | 5.9
RCQGTGFYTCIQELIGFGDPD [20E2B-4-H9-IGFR] |  | 0.2 | 5.6
SGAKVIVVTGDSGDPFYHKLSELLQGS [B6Hα-2-C10-IR] |  | 0.2 | 5.3
VGTVAGFYDAIAQLVARASRV [20E2A-3-C7-IGFR] |  | 0.2 | 5.1
TLRSPTFYDWLEMVLTHGQGG [20E2B-1-A8-IGFR] |  | 0.2 | 5
RFDPFYSYFVNLLGASA [NNRPγ-4-A7-IR] |  | 0.2 | 4.9
RGKTAAVIVGRPADPFYHKLSELLQGG [B6Hα-3-E8-IR] |  | 0.2 | 4.8
GCAVVEEAERSRGDPFYHKLSELIQGC [B6Hα-3-E7-IR] |  | 0.2 | 4.3
LSVALSFYDALGQLVAGEGRW [20E2A-3-A12-IGFR] |  | 0.3 | 3.9
AETSVQVGWIRLQSVWPGEHWNTVDPFYHKLSELLRGSGA [B6L-4-D7-IR] |  | 0.3 | 3.4
SRAKVEAEMPDSGDPFYHKLSELLASG [B6Hα-1-A3-IR] |  | 0.3 | 3.3
GIISQSCPESFYDWFAGQVSDPWWCW [H2CA-4-G9-IGFR] |  | 0.1 | 16
VGRASGFPENFYDWFGRQLSLQSGEQ [H2CA-4-H6-IGFR] |  | 0.1 | 14.6
VGYQGQGDENFYDWFIRQVSGRLGVQ [H2CA-4-F5-IGFR] |  | 0.1 | 12.3
SACQFDCHENFYDWFARQVSGGAAYG [H2CA-4-H8-IGFR] |  | 0.1 | 9.4
SAAQLFFQESFYDWFLRQVAESSQPN [H2CA-4-F11-IGFR] |  | 0.1 | 6.7
AVRATRFDEAFYDWFVRQISDGQGNK [H2CA-4-F6-IGFR] |  | 0.2 | 6.4
PPWGARFYDAIEQLVFDNL (Formula 2, Site 1 peptide) [RP4] | 476 |  | 
SQAGSAFYAWFDQVLRTV (Formula 1, Site 1 peptide) [RP15] | 25 |  | 
